# Source: US20030216297A1, “Pharmaceutical composition” (SANKYO COMPANY, LIMITED, priority 2002, published 2003)
# Assay: Serum concentration of OCIF after intravenous injection in rats
# Type: in vivo
# Settings: Wistar female rat, single i.v. dose 0.5 mg OCIF/kg, 6 hours after administration
# Procedure: Five-week old Wistar female rat (having a body weight of about 100 g) were made to abstain from food overnight. The preparation of OCIF and dextran sulfate prepared in either Preparation Example 1, Preparation Example 2 or Reference Example 1 which was to be tested was diluted to a concentration of 0.25 mg/ml with PBS (pH 7.4) containing 0.01% Polysorbate 80 to prepare an injectable solution, which was then administered to the tail of one of the test rats via a vein in a single dose at an injected level of 2 ml/kg body weight. 6 hours after administration, blood was taken from the heart of the rat. […]
# After stirring gently using a shaking machine (Micro plate mixer NS-P: manufactured by Iuchi Seiei-Do Co Ltd.), the absorbance of each well at a wavelength of 450 nm was measured using a micro plate reader (SPECTRA THERMO: manufactured by TECAN). The OCIF concentration in the tested serum was then calculated from a calibration curve created using the standard OCIF solution. The dose was calculated as the dose of OCIF per kg body weight (mg/kg) by measuring the concentration of OCIF in each injection prepared in 1(a) in a similar manner to the case of the serum.
# The OCIF in the serum obtained in 1(b) above was quantified for each sample according to the method described in 1(c) above.
substance,measurement,value
"Prep. 4: OCIF/DS5 complex: DS5 130 mg/ml, OCIF 6.5 mg/ml, 4 °C, pH 10.5, 72 h",Serum concentration (OCIF),0.37 µg/mL
